Where no end group is shown, it is not given here.
T1: mouse REC114 residues 1–158 (REC114N) (mouse, UniProt Q9CWH4 1-158, selenomethionine derivative (in the crystals))
T1 sequence (looked up): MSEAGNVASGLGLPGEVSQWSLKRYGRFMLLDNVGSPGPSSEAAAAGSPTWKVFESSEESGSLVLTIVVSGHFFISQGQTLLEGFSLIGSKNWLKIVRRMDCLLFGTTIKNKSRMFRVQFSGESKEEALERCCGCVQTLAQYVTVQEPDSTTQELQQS


Assays:
[1] = molecular target: T1, mouse REC114 residues 1–158 (REC114N); experiment: crystal structure
[2] = molecular target: T1, mouse REC114 residues 1–158 (REC114N); experiment: pull-down

Row | binding result [1] | binding result [2] | Binder
1 | binds |  | SRESMQTIPHYLQIKEILQISKQELLPCHVMEQHWKFYVGRSHSEALLSW (domain or fragment, UniProt A0A140LI88 1808-1857, looked up, also: selenomethionine derivative) [mouse ANKRD31 residues 1808–1857 (ANKRD31C)]
2 |  | binds | SRESMQTIPHYLQIKEILQISKQELLPCHVMEQHWKFYVGRSHSEALLSW (domain or fragment, mouse, UniProt A0A140LI88 1808-1857, looked up) [GST-tagged ANKRD31C]
